# Square brackets hold non-standard residues; d marks the D form. Ends that are not written are not given here. pY = N[C@@H](Cc1ccc(OP(=O)(O)O)cc1)C(=O)O
# Target: Human α-thrombin (human, UniProt P00734 328-622)
# Experiment: fluorescence polarization competition against fluoresceinated γ′408-427 phosphorylated peptide, 2 µM α-thrombin
binder,measurement,value
"E[pY]DSL[pY]PEDDL [γ′ amino-terminal deletion peptide 417-427, phosphotyrosine at 418 and 422]",binding result,no binding

# — US20040248807A1 (OREGON HEALTH AND SCIENCE UNIVERSITY, published 2004)
